Data taken from patent US20230212587A1, “Mutant Hydroxyphenylpyruvate Dioxygenase Polypeptide, Encoding Gene Thereof and Use Therefor” (Beijing Dabeinong Biotechnology Co., Ltd., priority 2019, published 2023).
Substitutions are numbered along the chain they refer to. Names and notes keep the numbering of the source.

B1: HvHPPDm-F372G: Hordeum vulgare HPPD mutant F372G, SEQ ID NO: 305 (protein)
chain: MPPTPTTPAATGAAAAVTPEHARPHRMVRFNPRSDRFHTLSFHHVEFWCADAASAAGRFAFALGAPLAARSDLSTGNSAHASQLLRSGSLAFLFTAPYANGCDAATASLPSFSADAARRFSADHGIAVRSVALRVADAAEAFRASRRRGARPAFAPVDLGRGFAFAEVELYGDVVLRFVSHPDGTDVPFLPGFEGVTNPDAVDYGLTRFDHVVGNVPELAPAAAYIAGFTGFHEFAEFTAEDVGTTESGLNSVVLANNSEGVLLPLNEPVHGTKRRSQIQTFLEHHGGPGVQHIAVASSDVLRTLRKMRARSAMGGFDFLPPPLPKYYEGVRRLAGDVLSEAQIKECQELGVLVDRDDQGVLLQIGTKPVGDRPTLFLEMIQRIGCMEKDERGEEYQKGGCGGFGKGNFSELFKSIEDYEKSLEAKQSAAVQGS
modifications: HvHPPDm-F372G Amino Acid Sequence
B2: BdHPPDm-F372G: Brachypodium distachyon HPPD mutant F372G, SEQ ID NO: 303 (protein)
chain: MPPPATTAAPAAAAVTPEHARPPRRVARVNPRSDRFSALSFHHVELWCADAASAAGRFSFALGAPPAARSDLSTGNSAHASILLRSGSLAFLFTAPYAPSPASDSAASIPSFSASAARQFTADHGGLAVRAVALRVSSASDAFHASVSAGARPSFPPADLGQGFALAEVELYGDVVLRFISHPDENTEIPFLPGFESVSNPGASTYGLTRFDHVVGNVPSLAPVAAYIAGFTGFHEFAEFTAEDVGTADSGLNSVVLANNSERVLLPLNEPVHGTKRRSQIQTYLDHHGGPGVQHIALASDDVLRTLREMRARSAMGGFEFLAPPPPNYYDGVRRRAGDVLSEAQIKECQELGVLVDRDDQGVLLQIGTKPVGDRPTLFLEMIQRIGCMEKDEIGQEQQKGGCGGFGKGNFSELFRSIEEYEKSLEAKQSAVVQES
modifications: BdHPPDm-F372G Amino Acid Sequence
B3: F372 deletion (protein, listed as Avena sativa)
chain: MPPTPATATGAAAAAVTPEHAARSFPRVVRVNPRSDRFPVLSFHHVELWCADAASAAGRFSFALGAPLAARSDLSTGNSAHASLLLRSGALAFLFTAPYAPPPQEAATAAATASIPSFSADAARTFAAAHGLAVRSVGVRVADAAEAFRVSVAGGARPAFAPADLGHGFGLAEVELYGDVVLRFVSYPDETDLPFLPGFERVSSPGAVDYGLTRFDHVVGNVPEMAPVIDYMKGFLGFHEFAEFTAEDVGTTESGLNSVVLANNSEAVLLPLNEPVHGTKRRSQIQTYLEYHGGPGVQHIALASNDVLRTLREMRARTPMGGFEFMAPPQAKYYEGVRRIAGDVLSEEQIKECQELGVLVDRDDQGVLLQITKPVGDRPTFFLEMIQRIGCMEKDEVGQEYQKGGCGGFGKGNFSELFKSIEDYEKSLEVKQSVVAQKS
modifications: AsHPPD Amido Acid Sequence
B4: F372W (protein, listed as Avena sativa)
chain: MPPTPATATGAAAAAVTPEHAARSFPRVVRVNPRSDRFPVLSFHHVELWCADAASAAGRFSFALGAPLAARSDLSTGNSAHASLLLRSGALAFLFTAPYAPPPQEAATAAATASIPSFSADAARTFAAAHGLAVRSVGVRVADAAEAFRVSVAGGARPAFAPADLGHGFGLAEVELYGDVVLRFVSYPDETDLPFLPGFERVSSPGAVDYGLTRFDHVVGNVPEMAPVIDYMKGFLGFHEFAEFTAEDVGTTESGLNSVVLANNSEAVLLPLNEPVHGTKRRSQIQTYLEYHGGPGVQHIALASNDVLRTLREMRARTPMGGFEFMAPPQAKYYEGVRRIAGDVLSEEQIKECQELGVLVDRDDQGVLLQIWTKPVGDRPTFFLEMIQRIGCMEKDEVGQEYQKGGCGGFGKGNFSELFKSIEDYEKSLEVKQSVVAQKS
modifications: AsHPPD Amido Acid Sequence
B5: F372E (protein, listed as Avena sativa)
chain: B4 chain with W372E
modifications: AsHPPD Amido Acid Sequence
B6: F372C (protein, listed as Avena sativa)
chain: B4 chain with W372C
modifications: AsHPPD Amido Acid Sequence
B7: F372T (protein, listed as Avena sativa)
chain: B4 chain with W372T
modifications: AsHPPD Amido Acid Sequence
B8: F372S (protein, listed as Avena sativa)
chain: B4 chain with W372S
modifications: AsHPPD Amido Acid Sequence
B9: F372M (protein, listed as Avena sativa)
chain: B4 chain with W372M
modifications: AsHPPD Amido Acid Sequence
B10: F372K. (protein, listed as Avena sativa)
chain: B4 chain with W372K
modifications: AsHPPD Amido Acid Sequence

tested on: Arabidopsis thaliana T1 plants; test: Topramezone tolerance of transgenic Arabidopsis thaliana T1 plants (pesticide damage grade by bleached leaf area, score, resistance evaluation); format: in vivo; parameters: score: scale not given here; conditions: topramezone 25 g ai/ha (1x); HPPD F372G mutants, Table 6
How it was run: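 Eighteen days after sowing, wild-type and HPPD-transgenic T1 Arabidopsis receive a topramezone spray at 1×, 2× or 4× field rate (25–100 g ai/ha) or water. Seven days later each plant is graded by its proportion of bleached leaf area.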

B1 was tested, and the Resistance evaluation was “Highly resistant”.
In the case of B2, the Resistance evaluation is reported as “Highly resistant”.

same assay, conditions: topramezone 25 g ai/ha (1x); HPPD from Avena sativa source

For B3, the “Resistance Grade” value was “Highly resistant”.
With B4 the “Resistance Grade” value was “Poorly resistant”.
With B5 the “Resistance Grade” value was “Poorly resistant”.
In the case of B6, the “Resistance Grade” value is reported as “Highly resistant”.
For B7, the “Resistance Grade” value was “Highly resistant”.
In the case of B8, the “Resistance Grade” value is reported as “Highly resistant”.
For B9, the “Resistance Grade” value was “Highly resistant”.
In the case of B10, the “Resistance Grade” value is reported as “Moderately resistant”.

First: B3
Second: B4
The score of the first is lower: 0 for the first, 37 for the second.

Compared with B5, B6 is lower in score: 60 for the first, 0 for the second.

B7 and B8 are the same in score: 0 for the first, 0 for the second.

First: B9
Second: B10
The score of the first is lower: 0 for the first, 33 for the second.

same assay, conditions: topramezone 25 g ai/ha (1x); number of plants; HPPD from Avena sativa source

Going from B3 to B4, the “Grade 0” value falls from 20 to 6.

Going from B5 to B6, the “Grade 0” value rises from 0 to 20.

B7 and B8 are the same in “Grade 0” value: 20 for the first, 20 for the second.

Compared with B9, B10 is lower in “Grade 0” value: 20 for the first, 0 for the second.

First: B3
Second: B4
The “Grade 1” value of the first is lower: 0 for the first, 6 for the second.

Going from B5 to B6, the “Grade 1” value falls from 8 to 0.

B7 and B8 are the same in “Grade 1” value: 0 for the first, 0 for the second.

First: B9
Second: B10
The “Grade 1” value of the first is lower: 0 for the first, 20 for the second.

First: B3
Second: B4
The “Grade 2” value of the first is lower: 0 for the first, 8 for the second.

First: B5
Second: B6
The “Grade 2” value of the first is higher: 8 for the first, 0 for the second.

B7 and B8 are the same in “Grade 2” value: 0 for the first, 0 for the second.

B9 and B10 are the same in “Grade 2” value: 0 for the first, 0 for the second.

B3 and B4 are the same in “Grade 3” value: 0 for the first, 0 for the second.

First: B5
Second: B6
The “Grade 3” value of the first is higher: 4 for the first, 0 for the second.

B7 and B8 are the same in “Grade 3” value: 0 for the first, 0 for the second.

B9 and B10 are the same in “Grade 3” value: 0 for the first, 0 for the second.

same assay, conditions: topramezone 50 g ai/ha (2x); HPPD from Avena sativa source

In the case of B3, the “Resistance Grade” value is reported as “Highly resistant”.
B4 was tested, and the “Resistance Grade” value was “Non-resistant”.
In the case of B5, the “Resistance Grade” value is reported as “Poorly resistant”.
For B6, the “Resistance Grade” value was “Highly resistant”.
For B7, the “Resistance Grade” value was “Highly resistant”.
With B8 the “Resistance Grade” value was “Highly resistant”.
For B9, the “Resistance Grade” value was “Moderately resistant”.
For B10, the “Resistance Grade” value was “Poorly resistant”.

Going from B3 to B4, the score rises from 0 to 100.

Going from B5 to B6, the score falls from 63 to 3.

Going from B7 to B8, the score falls from 3 to 0.

Going from B9 to B10, the score rises from 20 to 47.

same assay, conditions: topramezone 50 g ai/ha (2x); number of plants; HPPD from Avena sativa source

Going from B3 to B4, the “Grade 0” value falls from 20 to 0.

First: B5
Second: B6
The “Grade 0” value of the first is lower: 0 for the first, 18 for the second.

Going from B7 to B8, the “Grade 0” value rises from 18 to 20.

First: B9
Second: B10
The “Grade 0” value of the first is higher: 8 for the first, 2 for the second.

B3 and B4 are the same in “Grade 1” value: 0 for the first, 0 for the second.

First: B5
Second: B6
The “Grade 1” value of the first is higher: 6 for the first, 2 for the second.

Compared with B7, B8 is lower in “Grade 1” value: 2 for the first, 0 for the second.

First: B9
Second: B10
The “Grade 1” value of the first is higher: 12 for the first, 8 for the second.

B3 and B4 are the same in “Grade 2” value: 0 for the first, 0 for the second.

First: B5
Second: B6
The “Grade 2” value of the first is higher: 10 for the first, 0 for the second.

B7 and B8 are the same in “Grade 2” value: 0 for the first, 0 for the second.

Going from B9 to B10, the “Grade 2” value rises from 0 to 10.

First: B3
Second: B4
The “Grade 3” value of the first is lower: 0 for the first, 20 for the second.

First: B5
Second: B6
The “Grade 3” value of the first is higher: 4 for the first, 0 for the second.

B7 and B8 are the same in “Grade 3” value: 0 for the first, 0 for the second.

B9 and B10 are the same in “Grade 3” value: 0 for the first, 0 for the second.

same assay, conditions: topramezone 100 g ai/ha (4x); HPPD F372G mutants, Table 6

With B1 the Resistance evaluation was “Poorly resistant”.
In the case of B2, the Resistance evaluation is reported as “Moderately resistant”.

same assay, conditions: topramezone 100 g ai/ha (4x); HPPD from Avena sativa source

With B3 the “Resistance Grade” value was “Highly resistant”.
For B4, the “Resistance Grade” value was “Non-resistant”.
In the case of B5, the “Resistance Grade” value is reported as “Non-resistant”.
In the case of B6, the “Resistance Grade” value is reported as “Moderately resistant”.
In the case of B7, the “Resistance Grade” value is reported as “Moderately resistant”.
In the case of B8, the “Resistance Grade” value is reported as “Highly resistant”.
B9 was tested, and the “Resistance Grade” value was “Poorly resistant”.
B10 was tested, and the “Resistance Grade” value was “Non-resistant”.

First: B3
Second: B4
The score of the first is lower: 3 for the first, 100 for the second.

First: B5
Second: B6
The score of the first is higher: 97 for the first, 27 for the second.

First: B7
Second: B8
The score of the first is higher: 17 for the first, 0 for the second.

Going from B9 to B10, the score rises from 50 to 90.

same assay, conditions: topramezone 100 g ai/ha (4x); number of plants; HPPD from Avena sativa source

First: B3
Second: B4
The “Grade 0” value of the first is higher: 18 for the first, 0 for the second.

First: B5
Second: B6
The “Grade 0” value of the first is lower: 0 for the first, 8 for the second.

Going from B7 to B8, the “Grade 0” value rises from 10 to 20.

Going from B9 to B10, the “Grade 0” value falls from 2 to 0.

First: B3
Second: B4
The “Grade 1” value of the first is higher: 2 for the first, 0 for the second.

First: B5
Second: B6
The “Grade 1” value of the first is lower: 0 for the first, 8 for the second.

Going from B7 to B8, the “Grade 1” value falls from 10 to 0.

First: B9
Second: B10
The “Grade 1” value of the first is higher: 6 for the first, 0 for the second.

B3 and B4 are the same in “Grade 2” value: 0 for the first, 0 for the second.

Compared with B5, B6 is higher in “Grade 2” value: 2 for the first, 4 for the second.

B7 and B8 are the same in “Grade 2” value: 0 for the first, 0 for the second.

Compared with B9, B10 is lower in “Grade 2” value: 12 for the first, 6 for the second.

Going from B3 to B4, the “Grade 3” value rises from 0 to 20.

First: B5
Second: B6
The “Grade 3” value of the first is higher: 18 for the first, 0 for the second.

B7 and B8 are the same in “Grade 3” value: 0 for the first, 0 for the second.

Compared with B9, B10 is higher in “Grade 3” value: 0 for the first, 14 for the second.
